Each block holds one binder with its values, some of them ahead of it.
Legend:
recombinant human RSPO2 [1] = molecular target: T1, recombinant human RSPO2 (human, UniProt Q6UXX9 22-243); test: solid-phase in vitro binding assay (AP fusion read-out); ternary complex: recombinant RSPO protein on plate-coated ZNRF3 Fc chimera (4-6 h), read out through BMPR1A^ECD-AP; conditions: both partners purified
T1 construct: R-spondin 2, human, recombinant protein; source: bought: Peprotech 120-43

recombinant human RSPO3 = molecular target: T2, recombinant human RSPO3 (human, UniProt Q9BXY4 22-272); test: as above; conditions: both partners purified
T2 construct: R-spondin 3, human, recombinant protein; source: bought: Peprotech 120-44
T2 sequence (looked up): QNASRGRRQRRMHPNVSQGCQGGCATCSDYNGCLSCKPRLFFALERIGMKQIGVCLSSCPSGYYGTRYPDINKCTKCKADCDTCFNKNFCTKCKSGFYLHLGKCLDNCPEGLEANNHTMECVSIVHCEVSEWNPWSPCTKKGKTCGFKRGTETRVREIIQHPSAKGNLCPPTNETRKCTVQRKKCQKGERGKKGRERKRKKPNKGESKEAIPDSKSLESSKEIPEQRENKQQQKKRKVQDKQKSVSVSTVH

recombinant human RSPO2 [2] = molecular target: T1, recombinant human RSPO2; test: solid-phase in vitro binding assay (AP fusion read-out); Scatchard plot; RSPO2 recombinant protein (Peprotech 120-43) and BMPR1A^ECD-AP; conditions: one partner purified

T1 sequence (Q6UXX9 22-243): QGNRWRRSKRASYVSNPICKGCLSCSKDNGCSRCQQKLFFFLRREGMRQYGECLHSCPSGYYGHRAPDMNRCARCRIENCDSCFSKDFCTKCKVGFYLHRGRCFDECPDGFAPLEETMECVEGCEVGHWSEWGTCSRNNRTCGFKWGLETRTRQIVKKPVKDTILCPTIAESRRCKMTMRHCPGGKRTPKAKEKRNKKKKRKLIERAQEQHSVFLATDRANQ

binding result (recombinant human RSPO2 [1]): binds
binding result (recombinant human RSPO3): binds
B1: recombinant human ZNRF3 Fc Chimera protein (Fc fusion, UniProt Q9ULT6 56-219, looked up)
chain: KETAFVEVVLFESSPSGDYTTYTTGLTGRFSRAGATLSAEGEIVQMHPLGLCNNNDEEDLYEYGWVGVVKLEQPELDPKPCLTVLGKAKRAVQRGATAVIFDVSENPEAIDQLNQGSEDPLKRPVVYVKGADAIKLMNIVNKQKVARARIQHRPPRQPTEYFDM
notes: Zinc and ring finger 3 (ZNRF3), human, as Fc chimera; source: bought: R&D systems 7994-RF

Kd (recombinant human RSPO2 [2]): ~4.8 nM
B2: BMPR1A^ECD-AP (domain or fragment, human, UniProt P36894 24-152, looked up)
chain: QNLDSMLHGTGMKSDSDQKKSENGVTLAPEDTLPFLKCYCSGHCPDDAINNTCITNGHCFAIIEEDDQGETTLASGCMKYEGSDFQCKDSPKAQLRRTIECCRTNLCNQYLQPTLPPVVIGPFFDGSIR
notes: Extracellular domain of BMPR1A/ALK3; also called extracellular domain of BMPR1A; source: HEK293T, transiently transfected, conditioned medium
